Assay: label from the status in PepcDB records

| Sequence | protein production |
| --- | --- |
| MASYSEDQCSWRGSGLSQAVKNVEQVWLRCAEGSVEWLYPAGALRLTLSPRLPWSAMGPGESSRSPVSVCVKPDPHWGGAQLYLERDGVLELLVGDETSTTPGPAHVRCFSALPGERPALFLQATPHRDISRRIAAFRYELRGDWTAQPAVNTDPVSSEGACRPCNNTEILMAVCTSDFVVRGNIRSVGTDSNLNAAVIKVSATRVYRQKFALFPESGRLTRSGEIRTPLQCGVRPGAGSFLFTGRVHFGEAWLGCAPRYKDFLKAYEQAKQSLMIPCTLVND | failed |
| MPEVVFYPQNKSINVEEGTTILQAARSAGVIIESPCNGTGTCGKCKVRLDEKSLPNVLAKSRHYLSKEEEEQGYVLACETQITGDIKVELGENKQNGTLKILSRGHSFNIDLKPFIRKEYFVHEDVTKVFAGKEQLGIEAGDTTKENYGAVVDIGTTTLVASIVNLNNGDEIGTSSALNPQAVHAQDVLSRIKFSSDADGLKVMHSELTDKINSMIGKIALRAGISKEHIYEIVFSGNTCMLHLASNTCPESLGKYPYTPKISGAAYLDAAKYNIDISPFGIIYLPPIISAYVGADIVSGILASQLHEKDGVILFVDIGTNGEMVLASCGNLSATSTAAGPAFEGMNITCGMRAGEAAIEFFEIEEQGSINIKVIGETEAAGICGSGLLDMVGEFAAHGVIKKNGQFIDPESENVLHPKLAERLVRQDGKWIFKVTDKVFLSQKDIRQVQLAKGAVRAGIEFLLENKGVRASDVDKVLIAGSFGYHLREKSLINIGLLPKEFEGKVEFVGNTSLSGAKAFLLNQTYREKMKETVKSVEVLELANYKDFDRVFVRCLSFLEHHHHHH | failed |
| SLENLATAPVNQIQETISDNCVVIFSKTSCSYCTMAKKLFHDMNVNYKVVELDLLEYGNQFQDALYKMTGERTVPRIFVNGTFIGGATDTHRLHKEGKLLPLVHQCYLKKSKRKEFQ | not failed |
| MVGKMNEWELALKNKDCKKLLELFDDYFDEVSEDKLEEELKRVGEVAVECEDFDLIHEIAHIYEHLGEAEKGIDLYKRIVEKRKGRNTEDYAEALYYLADAYDHFGMPEEALKTYEELLELEKRIGNKREIGLTLANLAIIKDELGNVEEAIKLMEEARKIFEELKDENNYLISLIDLAHFKYELGEYEEAMKLIREVLRNPVDKEIEVNARLVESEIYAGERKYKEAAISLRNALQRSEDDEELFSLVFDSLTEFLEGLFNESRYRELVEVSPLFAELFEDDTKYFFNAIKGLAEWRLGNEKAREEFEENYKNIQNEELKALLDEWRRPKLSLGLNL | failed |
| MQKSEGSGGTQLKNRATGNYDQRTSSSTQLKHRNAVQGSKSSLSTSSPESARKLHPRPSDKLNPKTINPFGEQSRVPSAFAAIYSKGGIPCRLVHGSVKHRLQWECPPESLSFDPLLITLAEGLRETKHPYTFVSKEGFRELLLVKGAPEKAIPLLPRLIPVLKAALVHSDDEVFERGLNALVQLSVVVGPSLNDHLKHLLTSGSLSIIKSKIPTYCSICC | failed |
| MKLKTEPLSNEKNFSKVKKALSSIPQVRDQKFEEETNTVTIKVVCCSPEKVMDKLCSKGRGAIKLIETIDPAKHVAQKPKEPEKPKEAEKPKEPEKPKPAAAPAQGDPSSQRVTHGYNPPPMMGHPVPWSDGPNYGWSRPNGYDERPIYNSYGGWQPPPSQYGGRSHYEEEQPSCSIM | failed |
| QVPKKQTTSKILVRNIPFQANQREIRELFSTFGELKTVRLPKKMTGTGAHRGFGFVDFITKQDAKKAFNALCHSTHLYGRRLVLEWADSEVTVQ | not failed |
| MLDHFGSDPVFSPEQVLENRGRVAIFIDGSNLFYAALQLGIEIDYSKLLYRLTGGSRLLRSFFYTGVDRANEKQQGFLLWMRRNGYRVIAKDLVQLPDGSKKANLDVEIAVDMMALVGSYDTAVLVSGDGDLAYAVDAVSYRGARVEVVSLRSMTSDSLINVADRYIDLEQIQTDIQKLHRGQFSEPRLMEDRGGGTIELPSHE | failed |
| GSSGSSGGYFDAHALAMDYRSLGFRECLAEVARYLSIIEGLDASDPLRVRLVSHLNNYASQREASGPSSG | not failed |
| MNRFNYIGMLAYVALSMSSCDDSFDVSSKADGVLAVSQEGFNTLQSYNVGEKYTADLWIQQGGLKSTASVVSFSVDKALLDSMNIADGTSYELLPADCYQLTKSSVDIPANERLLKGELTYDPAKIQELSGYDHLKYVLPLRATSSGMPFVSGRSVLLLGFKVSEPIVTIMNAGVEEINLAEVKELPVQIGVPFTNKWEISCRLESRQSVIDAYNTAHGTYFSMLPSDAYVTPETPILHSGVNQVTATYKLKDDILPGNYMLPVQIAEVTSDATIRADKDVYAAYSIIKEGDKLSKTDWKIVSFTTEEASGEGSNNGHAKHLIDGNIETFWHSRWQGGSDPLPYEIIIDMNHRVKIAQIELLPRGRGSNNPIKVVRFEASEDGTNWESIGQFGFTNQDAALKYYVKSSTARYIKLVIPDGVGNGTVAAIRELDVRGTVVN | failed |
| MIFEIIKIGSQPINFAYPIPLLSLLAFMLSGSGYNELIISYIFAFSFFTAANLWNHLNDAEDDLNAGRNYARFLIEHRKIVTEFVVAFYFVSFLLIFFISKSKEIALLLTGLSVVLTWLYSDKIFIGKIIRRFKEDYKTEVFTYILCSFSFPLSFWTIFSEISQVGVVFTLATGFTYLSGFFLKDLKDISADIKSGYRTLAVVLSPSTLLIISVMLFIASTFVVIFSSLLDVTPTSSLLVLTVYPPILFAIYKFHKEKWKITKNIISSLKIYTYSYLGFLIAFAIGCKL | failed |
| MMKILGLIGGMSWESTIPYYRMINQHVKAQLGGLHSAKIILYSVDFHEIEQLQAKGDWQTAAQLLSNAAISLKHAGAEVIVVCTNTMHKVADDIEAACGLPLLHIADATAVQIKQQGIDKIGLLGTRYTMEQGFYRGRLTEKHGIEVITPDDTDREAVNRIIYEELCLGIISETSRDAYRRVIKKLEAQGVQGIIFGCTEITLLVNAQDASVPVFDTTAIHASAAADYALQ | not failed |
| MTFRDLLSVSFEGPRPDSSAGGSSAGGGGGSAGGAAPSEGPAVGGVPGGAGGGGGVVGAGSGEDNRSSAGEPGSAGAGGDVNGTAAVGGLVVSAQGVGVGVFLAAFILMAVAGNLLVILSVACNRHLQTVTNYFIVNLAVADLLLSATVLPFSATMEVLGFWAFGRAFCDVWAAVDVLCCTASILSLCTISVDRYVGVRHSLKYPAIMTERKAAAILALLWVVALVVSVGPLLGWKEPVPPDERFCGITEEAGYAVFSSVCSFYLPMAVIVVMYCRVYVVARSTTRSLEAGVKRERGKASEVVLRIHCRGAATGADGAHGMRSAKGHTFRSSLSVRLLKFSREKKAAKTLAIVVGVFVLCWFPFFFVLPLGSLFPQLKPSEGVFKVIFWLGYFNSCVNPLIYPCSSREFKRAFLRLLRCQCRRRRRRRPLWRVYGHHWRASTSGLRQDCAPSSGDAPPGAPLALTALPDPDPEPPGTPEMQAPVASRRKPPSAFREWRLLGPFRRPTTQLRAKVSSLSHKIRAGGAQRAEAACAQRSEVEAVSLGVPHEVAEGATCQAYELADYSNLRETDI | failed |
| PVPGIRCRDAFSAASGIIDKMACVPELAVSEISAPRIVSSLAGDGHALFVANSMPARDMDLYAAPVAQKPLQVALNRGVSGIDGIISTAAGFSAGLGKPTTLLIGDISFLHDLNALCLLNHPWNPLIVIVLNNHGGSIFSFLPIASQTDRLDECFATPQNFSIESAARTFGIDYACPETNGDFTQLYAEALTTKKSLIIEIRSDREKNLLLHRSLKARLDPVFEKADC | failed |
| MLNPVSQLSQAIRENTEHLAEKMKILFQNTGRAWEDLEARINAENEVPILKTSNKEISSILKELRRVQKQLEVINAIVDPSGSLDLLTGNRSLASSAQPGLGKGRVAAQSPPSPASAEALLPALPLRNFPQRASCGPPSLPDPTFLPDAERFLI | failed |
| MAAGFSSKTTRDSPHLSEIRVVLLGNNDCDRRRVVRSVLGDLTGESVGQCTVYDGEESRRRIRVVDAPGWNSNTPQSKLRESIERSAMLCAPGPHALLLVLPVRRNEDMSAGDIKSGMKLVEMLSERAWRHTIVVFACDEGTGGFSCSQKAKIVLEKCKGRGFYLQRQGGIAQLFTQIEDLVRDNGEDDVFLPQAYHELFRRKTEGLLHRRGNLRKKPVHLSKSEAGALGVEPFSVIVIAVLAAVLVSLSFGAEYGVFGGCAGLLLGSILPF | failed |
| MNTGTAVITGASSGLGLQCARALLRRDASWHVVLAVRDPARGRAAMEELGEPNRCSVLEVDLASVRSVRSFVETVRTTPLPPIRALVCNAGLQVVSGIAFTDDGVEMTFGVNHLGHFALVTGILDWLARPARIVVVSSGTHDPSKHTGMPDPRYTCAADLAHPPTDQNTPAEGRRRYTTSKLCNVLFTYELDRRLDHGEQGVMVNAFDPGLMPGSGLARDYPPILRLAYRLLSPMLRVLPFVHSTRVSGEHLAALAVDPRFAGVTGQYFAGAKAIRSSAESYDRAKALDLWETSERLLAQVT | failed |
| MLKKITCYTVLYIFILLNQPIQAQTYVIPDANFKNYLALNIPYVLNSNQELIISNAKIFTGTINCVGMNIEDLSGLQYFYKLTQLNCNSNQLTFLPSLDSLKQLQHMWVYNNKLTSIPSVNQLTNLQTLNVKNNQLTNLPSLTGMTALKSLDCSSNKLTALPDLSTLLNLEEMYCYINFITNIPSVSNLLHLKIFNIENNAIALLPDISQNTKLEILQFDLNQIETIPPLTTLTALKQLIFAHNKISTLPDLSANTALFIITGDNNQLTHIPDLSGFDNLTHVELSHNQLTFEDILPSSKHPQFSTVFNIQPQDSLNVNQPVSAVKGSTITLPLQFDLAVSGSTYNWYKNNIYLSSTTIPVLTLSNITEMNAGRYTCIITNNTSRLTGITLHARSYSILVEPCIKFSYINYEITANDCSKGAAIQIDHTQISALNTPLTYALHPLNNQSSITSASAVLNDVMPGRYSLTISDVNNCSVELQNYIFIPVPAGCMDSFTPNGDGLEDTYLIDKPGYTKIYNKNGTLIRTLNTPAAWDGSDESGKLCPMGYYIIIIDGKEKTGVVLIN | failed |
| MDMFGVAVLIFLVTDPFGNIAVFLAALKGVAPGRRLRVAFRELAFALGLLLLFLTLGEHILSGLGLSREATGIAGGIILFVIAMRLIFPSPQGLLGEVPDGEPLLVPLATPAVAGPSALAMLITLRTTFDGPLWELYLAVVLAWAATALILLQAAFLQRFLGPRGLTAIERLAGMLLIMLSVDMLLDNLRSVLHIAA | failed |
| MVAARPAERSGDPAAVRVPVPSAWWVLIGGVIGLFASMTLTVEKVRILLDPIYVPSCNVNPIVSCGSVMTTPQASLLGFPNPLLGIAGFTVVVVTGVLAVAKVPLPRWYWIGLAVGILVGVAFVHWLIFQSLYRIGALCPYCMVVWAVIATLLVVVASIVFGPMRENRGSQERVGARLLYQWRWSLATLWFTTVFLLIMVRFWDYWSTLI | failed |
| MKWYEQPLHTLSHAQWEALCDGCGQCCLNQLLDEEDNLYSTDVACRLLDTKTASCSDYAHRSERVPACVTLTPDNLDEVYFMPASCAYRLRAEGQPLPQWHPLRHEGSKEPMKKAGYHVAGHCVSEAKFKGDLEDRIVTWPLS | failed |
| MEQLIFKQTYKKIEPFILLLNGLLLAAAISIVHIVGMHAYHLFEAASSNVPLITLAFGISAVLSSVAIWLTSRFTLPIFRLILSSVIMGIGISASYYVSMLGWNIDIYKKDYTSFLILFSVLIAMSGSGLAFLLAYKLKESERHRISLKLAFAVMMTLSIMGMHYTALISTNITDKFVSQYQAEHDLLLFTIILVTCLVLVASFIVAVLEQRLNQRNLELRKANKELANLSIQDNLTKLPNRLYLVDYAEVLLSDHRYKDQKIAFLYIDLDRFKSVNDAFGHHIGDQLLIQMANRLHWQLNEKCKLLRIGGDEFLLIAENTDTEEAMQLAEKVLHLIQDSYQISGKEINISASLGIALFPEHGQNVQDLLMNADAAMLMSKEQGRNTYTVFSYSTHQQETRSQSKLINDLYKAVEEKQFVLYYQPKFNTNLEICGVEALIRWNHPSLGMLTPHMFIGGAEKTGLIIPMGYWALEQACQQIQEWERSNTQFYPIAVNLSALQFENKKLFSTLEGLLKKYQIQPHHLIIEITESTAMRHIDLSIRACERLRDMGIRVAIDDFGTGHSSFLYLKDLPVDELKIDRGFIVDLKPGSKEEVILESIIHLAKKLGLTVTAEGVETQQQVEILTRLGCQQFQGYLLGMPVNVGQLIQSQGAHFV | failed |
